T1: Human DLL3 expressed on cells (HEK293T-hDLL3, NCI-H82, SHP-77, MC38-hDLL3) (human, UniProt Q9NYJ7 27-618)
T1 construct: also called DLL3 endogenously expressed on human cells
T1 sequence: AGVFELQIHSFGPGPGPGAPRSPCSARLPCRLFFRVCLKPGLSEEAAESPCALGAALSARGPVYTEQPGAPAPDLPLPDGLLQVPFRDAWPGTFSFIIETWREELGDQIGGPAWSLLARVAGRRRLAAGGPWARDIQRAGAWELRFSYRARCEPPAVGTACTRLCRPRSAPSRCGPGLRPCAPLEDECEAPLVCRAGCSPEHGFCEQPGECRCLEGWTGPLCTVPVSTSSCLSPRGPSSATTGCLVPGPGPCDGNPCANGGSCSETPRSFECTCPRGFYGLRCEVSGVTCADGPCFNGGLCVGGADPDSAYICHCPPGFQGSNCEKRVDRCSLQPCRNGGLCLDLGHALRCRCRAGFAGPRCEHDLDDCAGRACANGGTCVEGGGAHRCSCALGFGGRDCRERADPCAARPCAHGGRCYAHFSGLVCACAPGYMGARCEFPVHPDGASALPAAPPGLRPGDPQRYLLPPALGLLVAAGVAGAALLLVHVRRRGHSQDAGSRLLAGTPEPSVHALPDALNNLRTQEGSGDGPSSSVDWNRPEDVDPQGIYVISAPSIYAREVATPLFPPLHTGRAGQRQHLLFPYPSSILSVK

T2: Human DLL3-NTD (truncated human DLL3, N-Terminal Domain, residues 27-189, C-terminal 6xHis and Avi-tag) (human, UniProt Q9NYJ7 27-189)
T2 construct: also called hDLL3-NTD; human NTD; not shown: C-terminal 6xHis and Avi-tag
T2 sequence: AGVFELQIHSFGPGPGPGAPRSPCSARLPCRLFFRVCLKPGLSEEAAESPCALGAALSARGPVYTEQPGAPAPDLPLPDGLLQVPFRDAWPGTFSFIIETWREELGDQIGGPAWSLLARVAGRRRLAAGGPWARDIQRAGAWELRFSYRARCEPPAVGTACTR

T3: Cyno DLL3-ECD (extracellular domain of cynomolgus macaque DLL3, residues 27 to 466, Avi-tag, 3C site, Fc knob … (cynomolgus macaque, UniProt A0A2K5WSR1 27-464, biotinylated at the Avi-tag (Example 11)))
T3 construct: range 27-466; also called cyno ECD; cynomolgus monkey DLL3; not shown: Avi-tag, 3C protease recognition site and Fc knob into hole
T3 sequence: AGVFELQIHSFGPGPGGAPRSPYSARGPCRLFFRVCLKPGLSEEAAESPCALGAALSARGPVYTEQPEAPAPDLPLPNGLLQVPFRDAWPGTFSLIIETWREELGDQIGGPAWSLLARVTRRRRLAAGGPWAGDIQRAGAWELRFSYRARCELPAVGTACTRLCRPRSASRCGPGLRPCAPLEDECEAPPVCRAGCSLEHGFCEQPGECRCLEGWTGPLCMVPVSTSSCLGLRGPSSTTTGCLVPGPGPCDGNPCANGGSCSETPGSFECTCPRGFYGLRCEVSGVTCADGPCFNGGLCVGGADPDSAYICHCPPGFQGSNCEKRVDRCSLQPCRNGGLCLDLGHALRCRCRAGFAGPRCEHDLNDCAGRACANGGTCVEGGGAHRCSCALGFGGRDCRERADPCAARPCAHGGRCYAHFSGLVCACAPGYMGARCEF

T4: Dog DLL3-NTD (truncated dog DLL3, N-Terminal Domain, residues 27-189, C-terminal 6xHis and Avi-tag) (dog, UniProt A0A8I3MXZ5 27-188, biotinylated at the Avi-tag)
T4 construct: also called dog NTD; not shown: C-terminal 6xHis and Avi-tag
T4 sequence: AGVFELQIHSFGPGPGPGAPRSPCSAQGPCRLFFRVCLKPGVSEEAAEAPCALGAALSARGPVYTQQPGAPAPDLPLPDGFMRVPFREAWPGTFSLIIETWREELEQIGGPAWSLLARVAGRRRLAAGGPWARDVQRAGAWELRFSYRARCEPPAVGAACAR

B1: Non-binding DARPin control comprising SEQ ID NO: 22 (designed binder)
chain: DLGKKLLEAARAGQDDEVRELLKAGADVNAKDKDGYTPLHLAAREGHLEIVEVLLKAGADVNAKDKDGYTPLHLAAREGHLEIVEVLLKAGADVNAQDKSGKTPADLAADAGHEDIAEVLQKAAGSPTPTPTTPTPTPTTPTPTPTGSDLGKKLLEAARAGQDDEVRELLKAGADVNAKDKDGYTPLHLAAREGHLEIVEVLLKAGADVNAKDKDGYTPLHLAAREGHLEIVEVLLKAGADVNAQDKSGKTPADLAADAGHEDIAEVLQKAA
notes: Negative control on NCI-H82 cells; also called control DARPin
B2: High HSA affinity 2D DARPin (SEQ ID NO: 17), Cysteine capped with iodoacetamide (designed binder)
chain: GSDLGKKLLEAARAGQDDEVRELLKAGADVNAKDYFSHTPLHLAARNGHLKIVEVLLKAGADVNAKDFAGKTPLHLAADAGHLEIVEVLLKAGADVNAQDIFGKTPADIAADAGHEDIAEVLQKAAGSPTPTPTTPTPTPTTPTPTPTGSDLGTKLLSAAADGQDDEVRELLQAGADVNAKDLFGYTPLHLAAWRGHLEIVEVLLEAGADVNAKDAAGLTPLHLAAWFGHLEIVEVLLEAGADVNAQDVQGVTPADLAAKEGHEDIAEVLQQAAGSGSC
modifications: free C-terminal Cysteine capped with Iodoacetamide (IAM)
notes: MAM160 with GS at the N-terminus and a Cysteine-containing tag at the C-terminus, without His-tag; also called GS-MAM160-tag
B3: MAM279 (SEQ ID NO: 11) with a Glycine-Serine (GS) at its N-terminal end and an N-terminal His-tag (SEQ ID NO: 19) (designed binder)
chain: MRGSHHHHHHGSDLGKKLLEAARAGQDDEVRELLKAGADVNAKDYFSHTPLHLAARNGHLKIVEVLLKAGADVNAKDFAGKTPLHLAADAGHLEIVEVLLKAGADVNAQDIFGKTPADIAADAGHEDIAEVLQKAAGSPTPTPTTPTPTPTTPTPTPTGSDLGKKLLAAAAQGQDDEVRELLKAGANVNAKDLFGYTPLHLAAWRGHLEIVEVLLKAGADVNAKDAAGETPLHLAAWFGHLEIVEVLLKAGADVNAQDLQGKTPADLAAKEGHEDIAEVLQKAA
notes: also called unconjugated MAM279
B4: Human DLL3-ECD (recombinant extracellular domain of human DLL3, Examples 11, 17 and 19) (Fc fusion)
chain: AGVFELQIHSFGPGPGPGAPRSPCSARLPCRLFFRVCLKPGLSEEAAESPCALGAALSARGPVYTEQPGAPAPDLPLPDGLLQVPFRDAWPGTFSFIIETWREELGDQIGGPAWSLLARVAGRRRLAAGGPWARDIQRAGAWELRFSYRARCEPPAVGTACTRLCRPRSAPSRCGPGLRPCAPLEDECEAPLVCRAGCSPEHGFCEQPGECRCLEGWTGPLCTVPVSTSSCLSPRGPSSATTGCLVPGPGPCDGNPCANGGSCSETPRSFECTCPRGFYGLRCEVSGVTCADGPCFNGGLCVGGADPDSAYICHCPPGFQGSNCEKRVDRCSLQPCRNGGLCLDLGHALRCRCRAGFAGPRCEHDLDDCAGRACANGGTCVEGGGAHRCSCALGFGGRDCRERADPCAARPCAHGGRCYAHFSGLVCACAPGYMGARCEF
modifications: biotinylated at the Avi-tag where immobilised (Examples 11 and 19)
notes: also called hDLL3-ECD; human ECD; not shown: Avi-tag and Fc knob into hole (order depends on the format)

Assay [1] addresses T1, Human DLL3 expressed on cells …. As to the kind of experiment: flow cytometry titration on NCI-H82 cells, with HSA. In general terms: A flow cytometer gives signals particle by particle.
Assay [2] deals with T5, human serum albumin (human, UniProt P02768 25-609).
T5 construct: also called HSA
As to the kind of experiment: SPR (ProteOn), HSA on chip, IAM-capped 2D DARPin as analyte, 1:1 Langmuir fit.
Procedure: (§4) For SPR analysis, the free Cysteine of the 2D DARPins was capped with Iodoacetamide (IAM). […] Various concentrations of 2D DARPins starting from 2000 nM were applied to immobilized human serum albumin (HSA) or mouse serum albumin (MSA) for on-rate and off-rate measurements.
(§5) The data were generated using a BioRad ProteOn instrument with SPR running buffer (PBS, pH 7.4 containing 0.05% Tween 20®). A HC200M chip (Xantec) was conditioned according to the manufacturer's protocol. […] The data was double referenced (control spot and buffer injection) and fitted to a 1:1 Langmuir model. The obtained SPR traces were used to determine binding parameters.

The target of assay [3] is T6, mouse serum albumin (mouse, UniProt P07724 25-608).
T6 construct: also called MSA
Put plainly: SPR (ProteOn), MSA on chip, IAM-capped 2D DARPin as analyte, 1:1 Langmuir fit.
Procedure: as §4, §5

The target of assay [4] is T5, human serum albumin. As to the kind of experiment: SPR (ProteOn), HSA on chip.
The target in assay [5] is B4. Put plainly: SPR (ProteOn), biotinylated human DLL3-ECD on chip, DARPin as analyte, 1:1 Langmuir fit (same values as Table 14). The procedure: (§1) The data were generated using BioRad ProteOn instrument in SPR running buffer (PBS, pH 7.4 containing 0.005% Tween 20©). […] The chip was coated with biotinylated target to reach a signal intensity of 1516 RU (human ECD), 257 RU (human NTD), 1500 RU (cyno ECD) and 228 RU (dog NTD). […] Each injection was followed by a regeneration step with 16 mM H₃PO₄ for 18 s. […] The obtained SPR traces were used to determine on-rate and off-rate interaction parameters.

Assay [6] has as its target T2, Human DLL3-NTD (truncated human DLL3, …). As to the kind of experiment: SPR (ProteOn), biotinylated human DLL3-NTD on chip, DARPin as analyte, 1:1 Langmuir fit. How it is done: as §1
Assay [7] deals with B4. As to the kind of experiment: SPR (ProteOn), biotinylated human DLL3-ECD on chip, DARPin as analyte, 1:1 Langmuir fit. The procedure: as §1
The target in assay [8] is T3, Cyno DLL3-ECD (extracellular domain of …). Put plainly: SPR (ProteOn), biotinylated cyno DLL3-ECD on chip, DARPin as analyte, 1:1 Langmuir fit. How it is done:
as §1

Assay [9] concerns the target T4, Dog DLL3-NTD (truncated dog DLL3, …). Put plainly: SPR (ProteOn).
Assay [10] deals with T3, Cyno DLL3-ECD (extracellular domain of …). Put plainly: SPR (ProteOn).
Assay [11] has as its target T6, mouse serum albumin. As to the kind of experiment: SPR (ProteOn), MSA on chip, DARPin as analyte, 1:1 Langmuir fit. How it is done: (§2) SPR multi-trace analyses were performed similarly as described in previous Examples.
(§3) All analytes (3-fold dilution ranging from 600-7.41 nM) were injected in succession for 240 s and dissociation was recorded for 600 s using a constant flow of 25 μl/min (HSA) or 100 μl/min (MSA) (25 μl/min).

The target of assay [12] is T5, human serum albumin. Put plainly: SPR (ProteOn), HSA on chip, DARPin as analyte, 1:1 Langmuir fit. The procedure: as §2, §3
The target of assay [13] is T4, Dog DLL3-NTD (truncated dog DLL3, …). Put plainly: SPR (ProteOn), biotinylated dog DLL3-NTD on chip, DARPin as analyte, 1:1 Langmuir fit. The procedure:
as §1

Assay [14] concerns the target T5, human serum albumin. Put plainly: SPR, HSA injected (injection 2) over immobilised hDLL3-ECD without conjugate. (Surface plasmon resonance follows binding to a sensor surface in real time, without labels.)

The Kd is the free concentration of one partner at which half of the binding sites on the other are occupied at equilibrium, for simple one-to-one binding. As usually defined, the koff is the first-order rate constant of dissociation. In general, kon refers to a measure of how fast the partners come together.

T6 sequence (P07724 25-608 limits assumed): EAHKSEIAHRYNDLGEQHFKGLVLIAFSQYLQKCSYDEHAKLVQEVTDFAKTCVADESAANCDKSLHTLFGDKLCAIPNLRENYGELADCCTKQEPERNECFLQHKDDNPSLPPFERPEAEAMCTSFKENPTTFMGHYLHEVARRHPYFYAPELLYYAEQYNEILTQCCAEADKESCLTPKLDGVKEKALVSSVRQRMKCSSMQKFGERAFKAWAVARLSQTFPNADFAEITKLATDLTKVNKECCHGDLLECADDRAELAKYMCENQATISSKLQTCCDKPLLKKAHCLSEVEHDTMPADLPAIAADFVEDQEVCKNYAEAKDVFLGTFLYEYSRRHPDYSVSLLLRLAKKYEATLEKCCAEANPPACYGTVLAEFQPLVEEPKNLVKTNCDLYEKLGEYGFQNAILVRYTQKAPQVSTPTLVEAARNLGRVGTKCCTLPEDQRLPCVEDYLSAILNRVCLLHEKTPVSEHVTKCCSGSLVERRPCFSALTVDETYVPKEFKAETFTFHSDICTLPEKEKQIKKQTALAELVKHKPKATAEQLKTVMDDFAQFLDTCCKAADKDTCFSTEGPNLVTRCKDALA

Turning to B1, the binding result in assay [1] is “no binding (tested: 500 nM)”.
Take B2: in the assay with human serum albumin [2], the Kd is 295 nM, the koff was 0.0311 s⁻¹ and the kon was 105000 M⁻¹ s⁻¹. Besides, in the assay with mouse serum albumin [3], the dissociation constant (Kd) amounted to 259 nM, the koff was determined as 0.0345 s⁻¹ and the kon was 133000 M⁻¹ s⁻¹. For the same molecule, the “fold higher binding affinity than the Low HSA affinity 2D DARPin” value in the assay with human serum albumin [4] was around 10 fold.
In the case of B3, the Kd in assay [5] is 0.174 nM; in assay [6], 0.263 nM; in assay [7] it was 0.174 nM; in [8], 22 nM; with mouse serum albumin [11], 144 nM; in the assay with human serum albumin [12], 75.5 nM. Also, in [13], binding was put at a Kd of 1.2 nM. For the same molecule, the off-rate (koff) in assay [5] came to 1.45e-05 s⁻¹; in [6] it was 1.54e-05 s⁻¹; in assay [7] it was 1.45e-05 s⁻¹; in assay [8], 0.000978 s⁻¹; with mouse serum albumin [11], 0.0383 s⁻¹; with human serum albumin [12] it was 0.0216 s⁻¹. Further, in assay [13], the koff stood at 5.58e-05 s⁻¹. Also, the kon in assay [5] was found to be 83500 M⁻¹ s⁻¹; in assay [6], 58700 M⁻¹ s⁻¹; in assay [7], 83500 M⁻¹ s⁻¹; in assay [8], 44500 M⁻¹ s⁻¹; with mouse serum albumin [11] it was 267000 M⁻¹ s⁻¹; with human serum albumin [12], 286000 M⁻¹ s⁻¹. This molecule came in with a kon in assay [13] of 46400 M⁻¹ s⁻¹. For the same molecule, the “fold lower affinity than to human DLL3-ECD” value in assay [9] is around 10 fold; in assay [10], around 100 fold.
Consider B4, for which the binding result with human serum albumin [14] is reported as “no binding (tested: 1000 nM)”.

Values taken from patent US20250332297A1, “DLL3-SPECIFIC BINDING CONSTRUCTS AND THEIR USE IN RADIOTHERAPY” (MOLECULAR PARTNERS AG, priority 2024, published 2025).
